The source of these data is article doi:10.1101/2022.07.22.501112, “An unexpected histone chaperone function for the MIER1 histone deacetylase complex” (bioRxiv, 2022).

Assay [1] addresses T1, Full length HDAC1(aa:1-482) (UniProt Q13547 1-482).
T1 construct: also called histone deacetylase 1
The assay can be described thus: co-IP + SEC; FLAG-tagged MIER1 construct co-expressed with untagged HDAC1 in HEK293F; anti-FLAG M2 resin, TEV cleavage, Superdex S200 in 25 mM Tris/HCl pH 7.5, 50 mM potassium acetate, 0.5 mM TCEP; SDS-PAGE, bands identified by MS. As to conditions: partners not purified.

The target of assay [2] is T2, E. coli expressed BAHD1(aa:588-780) (UniProt Q8TBE0 588-780).
T2 construct: BAHD1, BAH domain, residues 588-780; also called BAH domain of BAHD1; source: E. coli expressed
T2 sequence (looked up): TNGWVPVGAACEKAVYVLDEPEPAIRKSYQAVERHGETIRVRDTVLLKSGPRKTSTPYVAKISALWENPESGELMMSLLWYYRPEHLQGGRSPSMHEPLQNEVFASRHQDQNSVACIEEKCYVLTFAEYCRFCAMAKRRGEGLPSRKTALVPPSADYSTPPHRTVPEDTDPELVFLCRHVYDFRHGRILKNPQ
The assay can be described thus: fluorescence polarisation; 5 nM 5-FAM labelled histone peptide, BAHD1(aa:588-780) 0-142 uM, 25 mM Tris/Cl pH 7.5, 50 mM NaCl, 15 mins at 37 C; one-site binding model. The following applies: both partners purified. On the technique in general: In fluorescence polarisation assays a small probe gives low polarisation when free and higher when bound to something large.

Numbered stars: 1 amine (or outer) side, 2 acyl side, 3 side chain; on linkers, the order of the positions; unused ones are H or OH. Square brackets hold non-standard residues; d marks the D form. Ends that are not written are not given here. Lys(Me3) = C[N+](C)(C)CCCC[C@H](N)C(=O)O; Ethylenediamine = C(CN[*:2])N[*:1]; 5‑FAM = fluorescent label

T1 sequence (Q13547 whole entry): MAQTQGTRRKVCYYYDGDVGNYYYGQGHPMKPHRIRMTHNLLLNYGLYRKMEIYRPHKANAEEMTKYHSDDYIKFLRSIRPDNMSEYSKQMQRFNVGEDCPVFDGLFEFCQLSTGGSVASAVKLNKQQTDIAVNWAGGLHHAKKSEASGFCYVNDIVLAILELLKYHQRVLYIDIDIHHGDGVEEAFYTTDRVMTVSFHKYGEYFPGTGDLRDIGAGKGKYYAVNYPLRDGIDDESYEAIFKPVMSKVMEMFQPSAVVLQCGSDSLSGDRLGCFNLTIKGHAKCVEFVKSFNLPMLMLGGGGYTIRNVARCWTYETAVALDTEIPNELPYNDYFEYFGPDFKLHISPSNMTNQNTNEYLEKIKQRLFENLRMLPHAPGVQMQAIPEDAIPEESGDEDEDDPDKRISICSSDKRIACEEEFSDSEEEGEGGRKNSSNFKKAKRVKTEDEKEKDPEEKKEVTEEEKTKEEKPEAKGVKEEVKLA

B1: FLAG-tagged MIER1(aa:171-350), ELM2-SANT domain (domain or fragment, human, UniProt Q8N108 171-350, looked up)
chain: DYIPSEDWKKEIMVGSMFQAEIPVGICRYKENEKVYENDDQLLWDPEYLPEDKVIIFLKDASRRTGDEKGVEAIPEGSHIKDNEQALYELVKCNFDTEEALRRLRFNVKAAREELSVWTEEECRNFEQGLKAYGKDFHLIQANKVRTRSVGECVAFYYMWKKSERYDFFAQQTRFGKKKY
notes: Captured on anti-FLAG resin by the tag; the tag was then cut off by TEV protease before gel filtration and SEC-MALS (21 kDa counted for the fragment); also called MIER ELM2-SANT; source: HEK293F, co-transfected with HDAC1; anti-FLAG resin, TEV cleavage, Superdex S200; not shown: 10xHis-3xFLAG, N-terminal, kept
For B1, the binding result in assay [1] was “binds”.

B2: H3 16-35 K27me3 peptide (peptide)
peptide: PRKQLATKAAR[Lys(Me3)]SAPATGG-{Ethylenediamine-4‑Abu-5‑FAM}
notes: The twelfth letter (K27) is trimethyl-lysine; also called H3 histone tail bearing a K27me3 modification; source: synthetic peptide, bought: Cambridge Research Biochemicals
In the case of B2, in assay [2], the binding result is listed as “binds”.
